Assay results published in the supplement of paper PMC9112550, “Optimization of the antimicrobial peptide Bac7 by deep mutational scanning” (BMC Biology, 2022).

The sequences below were run on Escherichia coli TOP10 (assay: shrunken log2 fold change of peptide-encoding DNA abundance (4.5 h post-induction vs induction); higher = less antimicrobial activity (less host growth inhibition)). Conditions: time post-induction: 4.5 h; library: site-saturation at positions 5, 18, 19, 20.
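Further: peptides expressed intracellularly from a pBAD plasmid library in pooled LB shake-flask culture, induced with 0.3% L-arabinose, DNA abundance read by NGS, three biological replicates, DESeq2 with apeglm shrinkage.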

Sequence	shrunken log2 fold change
RRIRTRPPRLPRPRPRPHPCPRP	-0.339
RRIRHRPPRLPRPRPRPHTPPRP	-0.147
RRIRARPPRLPRPRPRPTDHPRP	0.0934
RRIRLRPPRLPRPRPRPCIEPRP	-0.256
RRIRLRPPRLPRPRPRPSHDPRP	-0.385
RRIRCRPPRLPRPRPRPFSAPRP	-0.565
RRIRGRPPRLPRPRPRPYVIPRP	-0.0899
RRIRSRPPRLPRPRPRPSSHPRP	-0.0982
RRIRYRPPRLPRPRPRPFMMPRP	-0.108
RRIRRRPPRLPRPRPRPAYRPRP	0.108
RRIRIRPPRLPRPRPRPILRPRP	-0.484
RRIRRRPPRLPRPRPRPKHEPRP	0.0619
RRIRDRPPRLPRPRPRPGTDPRP	0.341
RRIRTRPPRLPRPRPRPGIDPRP	-0.0352
RRIRRRPPRLPRPRPRPYGYPRP	0.0179
RRIRGRPPRLPRPRPRPSWIPRP	-0.0436
RRIRHRPPRLPRPRPRPGRGPRP	0.529
RRIRCRPPRLPRPRPRPMEPPRP	0.0774
RRIRWRPPRLPRPRPRPAHHPRP	-0.0193
RRIRKRPPRLPRPRPRPIKEPRP	-0.0178
RRIRCRPPRLPRPRPRPDEWPRP	-0.0372
RRIRYRPPRLPRPRPRPNLAPRP	-0.0223
RRIRIRPPRLPRPRPRPCHTPRP	-0.0495
RRIRKRPPRLPRPRPRPQIKPRP	0.0963
RRIRCRPPRLPRPRPRPNTEPRP	-0.161

Sequence	shrunken log2 fold change
RRIRGRPPRLPRPRPRPMLVPRP	0.418
RRIRTRPPRLPRPRPRPGWMPRP	-0.182
RRIRRRPPRLPRPRPRPFETPRP	-0.207
RRIRFRPPRLPRPRPRPMLAPRP	0.0819
RRIRFRPPRLPRPRPRPESMPRP	-0.188
RRIRARPPRLPRPRPRPSIAPRP	0.186
RRIRHRPPRLPRPRPRPDGNPRP	-0.105
RRIRKRPPRLPRPRPRPCCHPRP	-1.07
RRIRIRPPRLPRPRPRPTKEPRP	0.0462
RRIRRRPPRLPRPRPRPNTRPRP	0.162
RRIRMRPPRLPRPRPRPSRPPRP	0.764
RRIRVRPPRLPRPRPRPYIFPRP	-0.864
RRIRSRPPRLPRPRPRPTTIPRP	0.127
RRIRPRPPRLPRPRPRPIKYPRP	0.32
RRIRSRPPRLPRPRPRPPLEPRP	0.367
RRIRIRPPRLPRPRPRPMPYPRP	-0.0219
RRIRERPPRLPRPRPRPQKVPRP	-0.102
RRIRRRPPRLPRPRPRPEMKPRP	0.215
RRIRHRPPRLPRPRPRPRCLPRP	-0.169
RRIRVRPPRLPRPRPRPHNSPRP	-0.23
RRIRHRPPRLPRPRPRPNGWPRP	0.42
RRIRVRPPRLPRPRPRPHSEPRP	-0.392
RRIRRRPPRLPRPRPRPQDRPRP	0.0852
RRIRWRPPRLPRPRPRPHELPRP	-0.0349
RRIRLRPPRLPRPRPRPHVRPRP	0.0652

Sequence	shrunken log2 fold change
RRIRKRPPRLPRPRPRPLECPRP	-0.00691
RRIRNRPPRLPRPRPRPYGPPRP	-0.00663
RRIRYRPPRLPRPRPRPGDMPRP	-0.464
RRIRVRPPRLPRPRPRPKCAPRP	0.0145
RRIRWRPPRLPRPRPRPPLYPRP	0.188
RRIRARPPRLPRPRPRPPTKPRP	0.486
RRIRDRPPRLPRPRPRPVLLPRP	-0.00551
RRIRSRPPRLPRPRPRPPKAPRP	-0.259
RRIRLRPPRLPRPRPRPYPGPRP	-0.251
RRIRWRPPRLPRPRPRPFRFPRP	-0.0501
RRIRHRPPRLPRPRPRPWYQPRP	0.0124
RRIRTRPPRLPRPRPRPGTPPRP	0.0833
RRIRARPPRLPRPRPRPYTPPRP	-0.373
RRIRQRPPRLPRPRPRPHRAPRP	-0.137
RRIRARPPRLPRPRPRPKPMPRP	0.831
RRIRFRPPRLPRPRPRPYDTPRP	-0.106
RRIRSRPPRLPRPRPRPHTNPRP	-0.335
RRIRKRPPRLPRPRPRPGRCPRP	0.586
RRIRHRPPRLPRPRPRPIPHPRP	-0.664
RRIRVRPPRLPRPRPRPINTPRP	-1.07
RRIRHRPPRLPRPRPRPRAWPRP	0.0709
RRIRERPPRLPRPRPRPDNGPRP	-0.0776
RRIRNRPPRLPRPRPRPNHNPRP	-0.858
RRIRVRPPRLPRPRPRPKQCPRP	-0.141
RRIRARPPRLPRPRPRPMPSPRP	0.341
